According to patent publication US20100041096:

Legend:
[1] = molecular target: His-Flag-NPM (full length, recombinant, from E. coli), P06748
[2] = molecular target: endogenous NPM of 293T cells, P06748
Sequence of endogenous NPM of 293T cells, P06748 (P06748 whole entry): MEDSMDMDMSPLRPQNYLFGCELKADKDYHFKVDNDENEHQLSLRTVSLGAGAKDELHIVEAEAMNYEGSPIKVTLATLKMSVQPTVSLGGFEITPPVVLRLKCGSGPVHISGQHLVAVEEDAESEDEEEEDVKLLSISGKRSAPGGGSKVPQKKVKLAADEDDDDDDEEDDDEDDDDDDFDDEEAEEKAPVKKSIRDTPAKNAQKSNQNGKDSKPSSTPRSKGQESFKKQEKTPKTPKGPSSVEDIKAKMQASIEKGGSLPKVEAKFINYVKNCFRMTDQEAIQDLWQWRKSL

Sequence of His-Flag-NPM (full length, recombinant, from E. coli), P06748 (P06748 whole entry): as above

| Protein | in vitro ubiquitination with purified recombinant proteins (anti-Flag immunoblot) [1] | LC/MS/MS identification of proteins conjugated with Flag-ubiquitin in the reaction of the ligase immunocomplex [2] |
| --- | --- | --- |
| His-BRCA1 (1-304) / His-BARD1 (14-189) (protein) chain 1: MDLSALRVEEVQNVINAMQKILECPICLELIKEPVSTKCDHIFCKFCMLKLLNQKKGPSQCPLCKNDITKRSLQESTRFSQLVEELLKIICAFQLDTGLEYANSYNFAKKENNSPEHLKDEVSIIQSMGYRNRAKRLLQSEPENPSLQETSLSVQLSNLGTVRTLRTKQRIQPQKTSVYIELGSDSSEDTVNKATYCSVGDQELLQITPQGTRDEISLDSAKKAACEFSETDVTNTEHHQPSNNDLNTTEKRAAERHPEKYQGSSVSNLHVEPCGTNTHASSLQHENSSLLLTKDRMNVEKAEF chain 2: IRSGNEPRSAPAMEPDGRGAWAHSRAALDRLEKLLRCSRCTNILREPVCLGGCEHIFCSNCVSDCIGTGCPVCYTPAWIQDLKINRQLDSMIQLCSKLRNLLHDNELSDLKEDKPRKSLFNDAGNKKNSIKMWFSPRSKKVRYVVSKASVQTQPAIKKDASAQQDSYEFVSPSPPA | two slowly floating products were detected in the gel (lane 7) |  |
| Myc-BRCA1(1-772)/BARD1 complex (protein) chain 1: MDLSALRVEEVQNVINAMQKILECPICLELIKEPVSTKCDHIFCKFCMLKLLNQKKGPSQCPLCKNDITKRSLQESTRFSQLVEELLKIICAFQLDTGLEYANSYNFAKKENNSPEHLKDEVSIIQSMGYRNRAKRLLQSEPENPSLQETSLSVQLSNLGTVRTLRTKQRIQPQKTSVYIELGSDSSEDTVNKATYCSVGDQELLQITPQGTRDEISLDSAKKAACEFSETDVTNTEHHQPSNNDLNTTEKRAAERHPEKYQGSSVSNLHVEPCGTNTHASSLQHENSSLLLTKDRMNVEKAEFCNKSKQPGLARSQHNRWAGSKETCNDRRTPSTEKKVDLNADPLCERKEWNKQKLPCSENPRDTEDVPWITLNSSIQKVNEWFSRSDELLGSDDSHDGESESNAKVADVLDVLNEVDEYSGSSEKIDLLASDPHEALICKSERVHSKSVESNIEDKIFGKTYRKKASLPNLSHVTENLIIGAFVTEPQIIQERPLTNKLKRKRRPTSGLHPEDFIKKADLAVQKTPEMINQGTNQTEQNGQVMNITNSGHENKTKGDSIQNEKNPNPIESLEKESAFKTKAEPISSSISNMELELNIHNSKAPKKNRLRRKSSTRHIHALELVVSRNLSPPNCTELQIDSCSSSEEIKKKKYNQMPVRHSRNLQLMEGKEPATGAKKSNKPNEQTSKRHDSDTFPELKLTNAPGSFTKCSNTSELKEFVNPSLPREEKEEKLETVKVSNNAEDPKDLMLSGERVLQTERSVESSSISLV chain 2: MPDNRQPRNRQPRIRSGNEPRSAPAMEPDGRGAWAHSRAALDRLEKLLRCSRCTNILREPVCLGGCEHIFCSNCVSDCIGTGCPVCYTPAWIQDLKINRQLDSMIQLCSKLRNLLHDNELSDLKEDKPRKSLFNDAGNKKNSIKMWFSPRSKKVRYVVSKASVQTQPAIKKDASAQQDSYEFVSPSPPADVSERAKKASARSGKKQKKKTLAEINQKWNLEAEKEDGEFDSKEESKQKLVSFCSQPSVISSPQINGEIDLLASGSLTESECFGSLTEVSLPLAEQIESPDTKSRNEVVTPEKVCKNYLTSKKSLPLENNGKRGHHNRLSSPISKRCRTSILSTSGDFVKQTVPSENIPLPECSSPPSCKRKVGGTSGRKNSNMSDEFISLSPGTPPSTLSSSSYRRVMSSPSAMKLLPNMAVKRNHRGETLLHIASIKGDIPSVEYLLQNGSDPNVKDHAGWTPLHEACNHGHLKVVELLLQHKALVNTTGYQNDSPLHDAAKNGHVDIVKLLLSYGASRNAVNIFGLRPVDYTDDESMKSLLLLPEKNESSSASHCSVMNTGQRRDGPLVLIGSGLSSEQQKMLSELAVILKAKKYTEFDSTVTHVVVPGDAVQSTLKCMLGILNGCWILKFEWVKACLRRKVCEQEEKYEIPEGPRRSRLNREQLLPKLFDGCYFYLWGTFKHHPKDNLIKLVTAGGGQILSRKPKPDSDVTQTINTVAYHARPDSDQRFCTQYIIYEDLCNYHPERVRQGKVWKAPSSWFIDCVMSFELLPLDS |  | Of the proteins identified, nucleophosmin/B23 (NPM) exhibited the highest possibility with 17 peptides displaying a probability based Mowse score of 126 |
